PMC12529927, “Functional microRNA targeting without seed pairing”
Positions count from the first letter of the chain named.

Columns and labels:
[1] = molecular target: T1, AGO2 (loaded with guide RNA) (Homo sapiens, UniProt Q9UKV8 1-859); experiment: filter binding; 18 mM HEPES pH 7.4, 100 mM K-acetate, 1 mM Mg-acetate, 0.01% IGEPAL, 0.01 mg/mL yeast tRNA, 5 mM DTT, BSA, glycerol, 37 C, 4 h, 1-5 pM target; kinetics with 10; settings: protein: recombinant, tags: 3xFLAG-SUMOEu1 (removed by SENPEuB cleavage)
[2] = molecular target: T1, AGO2 (loaded with guide RNA); experiment: filter binding; Kd printed only in figure; similar to m11_23; 18 mM HEPES pH 7.4, 100 mM K-acetate, 1 mM Mg-acetate, 0.01% IGEPAL, 0.01 mg/mL yeast tRNA, 5 mM DTT, BSA, glycerol, 37 C, 4 h, 1-5 pM target; kinetics with 10; settings: protein: recombinant, tags: 3xFLAG-SUMOEu1 (removed by SENPEuB cleavage), label: 32P target, seed g2-8 paired
[3] = molecular target: T1, AGO2 (loaded with guide RNA); experiment: filter binding; Kd printed only in figure; similar to m9_22; 18 mM HEPES pH 7.4, 100 mM K-acetate, 1 mM Mg-acetate, 0.01% IGEPAL, 0.01 mg/mL yeast tRNA, 5 mM DTT, BSA, glycerol, 37 C, 4 h, 1-5 pM target; kinetics with 10; settings: protein: recombinant, tags: 3xFLAG-SUMOEu1 (removed by SENPEuB cleavage), label: 32P target, seed g2-8 paired
[4] = molecular target: T1, AGO2 (loaded with guide RNA); experiment: filter binding; no boost over m11_23; 18 mM HEPES pH 7.4, 100 mM K-acetate, 1 mM Mg-acetate, 0.01% IGEPAL, 0.01 mg/mL yeast tRNA, 5 mM DTT, BSA, glycerol, 37 C, 4 h, 1-5 pM target; kinetics with 10; settings: protein: recombinant; tags: 3xFLAG-SUMOEu1 (removed by SENPEuB cleavage); label: 32P target; g11-23 and g2-4 paired, offset +2
[5] = molecular target: T1, AGO2 (loaded with guide RNA); experiment: filter binding; modest boost over m11_23; 18 mM HEPES pH 7.4, 100 mM K-acetate, 1 mM Mg-acetate, 0.01% IGEPAL, 0.01 mg/mL yeast tRNA, 5 mM DTT, BSA, glycerol, 37 C, 4 h, 1-5 pM target; kinetics with 10; settings: protein: recombinant, tags: 3xFLAG-SUMOEu1 (removed by SENPEuB cleavage), label: 32P target, offset +2
[6] = molecular target: T1, AGO2 (loaded with guide RNA); experiment: filter binding; length-matched; slightly weaker than m2_6; 18 mM HEPES pH 7.4, 100 mM K-acetate, 1 mM Mg-acetate, 0.01% IGEPAL, 0.01 mg/mL yeast tRNA, 5 mM DTT, BSA, glycerol, 37 C, 4 h, 1-5 pM target; kinetics with 10; settings: protein: recombinant; tags: 3xFLAG-SUMOEu1 (removed by SENPEuB cleavage); label: 32P target; g11-23 and g2-5 paired, offset +2
[7] = molecular target: T1, AGO2 (loaded with guide RNA); experiment: filter binding; no boost over m9_22; 18 mM HEPES pH 7.4, 100 mM K-acetate, 1 mM Mg-acetate, 0.01% IGEPAL, 0.01 mg/mL yeast tRNA, 5 mM DTT, BSA, glycerol, 37 C, 4 h, 1-5 pM target; kinetics with 10; settings: protein: recombinant, tags: 3xFLAG-SUMOEu1 (removed by SENPEuB cleavage), label: 32P target, offset +3
[8] = molecular target: T1, AGO2 (loaded with guide RNA); experiment: filter binding; modest boost over m9_22; 18 mM HEPES pH 7.4, 100 mM K-acetate, 1 mM Mg-acetate, 0.01% IGEPAL, 0.01 mg/mL yeast tRNA, 5 mM DTT, BSA, glycerol, 37 C, 4 h, 1-5 pM target; kinetics with 10; settings: protein: recombinant, tags: 3xFLAG-SUMOEu1 (removed by SENPEuB cleavage), label: 32P target, offset +3

T1 sequence (Q9UKV8 whole entry): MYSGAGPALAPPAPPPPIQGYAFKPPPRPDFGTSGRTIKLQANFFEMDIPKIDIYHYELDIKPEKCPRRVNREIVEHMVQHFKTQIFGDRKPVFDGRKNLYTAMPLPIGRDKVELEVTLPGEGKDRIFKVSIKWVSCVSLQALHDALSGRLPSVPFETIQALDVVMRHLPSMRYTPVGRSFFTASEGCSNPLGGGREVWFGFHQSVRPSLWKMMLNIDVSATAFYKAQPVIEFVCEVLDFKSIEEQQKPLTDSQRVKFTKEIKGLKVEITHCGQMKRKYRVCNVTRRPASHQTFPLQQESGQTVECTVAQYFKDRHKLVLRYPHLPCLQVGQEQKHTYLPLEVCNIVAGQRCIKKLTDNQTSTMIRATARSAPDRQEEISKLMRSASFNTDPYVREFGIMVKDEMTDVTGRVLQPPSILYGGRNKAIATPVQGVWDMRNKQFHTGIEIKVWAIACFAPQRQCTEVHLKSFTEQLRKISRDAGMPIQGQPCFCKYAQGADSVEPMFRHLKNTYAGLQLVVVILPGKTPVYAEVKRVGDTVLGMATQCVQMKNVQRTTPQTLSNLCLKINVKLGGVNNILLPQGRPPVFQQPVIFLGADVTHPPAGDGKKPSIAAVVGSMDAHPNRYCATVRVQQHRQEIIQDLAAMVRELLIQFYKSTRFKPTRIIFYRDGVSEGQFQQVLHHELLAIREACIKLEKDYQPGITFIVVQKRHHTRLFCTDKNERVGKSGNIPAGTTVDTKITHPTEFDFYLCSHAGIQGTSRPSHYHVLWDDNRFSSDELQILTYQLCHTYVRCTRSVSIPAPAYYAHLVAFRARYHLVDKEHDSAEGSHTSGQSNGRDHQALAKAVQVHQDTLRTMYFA

B1: let-7a / 7mer-m8 (mixed)
RNA 1: UGAGGUAGUAGGUUGUAUAGUU
RNA 2: UUUUUUUUUUUUUUUUUUCUACCUCUUUUUUU
modifications: 5'-phosphate guide
Kd ([1]; label: 32P target, seed g2-8 paired): < 5 pM

B2: let-7a / m11_22 (also labelled m10_22) (mixed)
RNA 1: UGAGGUAGUAGGUUGUAUAGUU
RNA 2: UUUUUAACUAUACAACCUUUUUUUUUUUUUUU
modifications: 5'-phosphate guide
Kd ([1]; g11-22 paired): ~400 pM

B3: miR-155 wt / 7mer-m8 (mixed)
RNA 1: UUAAUGCUAAUCGUGAUAGGGGU
RNA 2: UUUUUUUUUAAAGCAUUAUUUUUU
modifications: 5'-phosphate guide
binding result [2]: binds

B4: miR-155 mut / 7mer-m8 (mixed)
RNA 1: UUCGUGCUAAUCGUGAUAGGGGU
RNA 2: UUUUUUUUUAAAGCACGAUUUUUU
modifications: 5'-phosphate guide
binding result [2]: binds

B5: miR-124 wt / 7mer-m8 (mixed)
RNA 1: UAAGGCACGCGGUGAAUGCCAA
RNA 2: UUUUUUUUUUUGUGCCUUUUUUUU
modifications: 5'-phosphate guide
binding result [3]: binds

B6: miR-124 mut / 7mer-m8 (mixed)
RNA 1: UCUGGCUCGCGGUGAAUGCCAA
RNA 2: UUUUUUUUUUUGAGCCAGUUUUUU
modifications: 5'-phosphate guide
binding result [3]: binds

B7: miR-155 mut / m11_23|+2|m2_4 (mixed)
RNA 1: UUCGUGCUAAUCGUGAUAGGGGU
RNA 2: UUUUACCCCUAUCACGACCUUUUUUCGAUUUU
modifications: 5'-phosphate guide
binding result [4]: binds

B8: miR-155 mut / m11_23|+2|m2_5 (mixed)
RNA 1: UUCGUGCUAAUCGUGAUAGGGGU
RNA 2: UUUUUUACCCCUAUCACGACCUUUUUACGAUUUUUUUUUUUUUU
modifications: 5'-phosphate guide
binding result ([5]; g11-23 and g2-5 paired): binds

B9: miR-155 mut / m11_23|+2|m2_6 (mixed)
RNA 1: UUCGUGCUAAUCGUGAUAGGGGU
RNA 2: B7 RNA 2 with U24C, U25A
modifications: 5'-phosphate guide
binding result ([5]; g11-23 and g2-6 paired): binds

B10: miR-155 mut / m11_23|+2|m2_5 (repeat) (mixed)
RNA 1: UUCGUGCUAAUCGUGAUAGGGGU
RNA 2: B7 RNA 2 with U25A
modifications: 5'-phosphate guide
binding result [6]: binds

B11: miR-124 mut / m9_22|+3|m2 (mixed)
RNA 1: UCUGGCUCGCGGUGAAUGCCAA
RNA 2: UUUUUUGGCAUUCACCGCUUUUUUUUUGUUUU
modifications: 5'-phosphate guide
binding result ([7]; g9-22 and g2 paired): binds

B12: miR-124 mut / m9_22|+3|m2_3 (mixed)
RNA 1: UCUGGCUCGCGGUGAAUGCCAA
RNA 2: B11 RNA 2 with U27A
modifications: 5'-phosphate guide
binding result ([7]; g9-22 and g2-3 paired): binds

B13: miR-124 mut / m9_22|+3|m2_4 (mixed)
RNA 1: UCUGGCUCGCGGUGAAUGCCAA
RNA 2: B11 RNA 2 with U26C, U27A
modifications: 5'-phosphate guide
binding result ([8]; g9-22 and g2-4 paired): binds

B14: miR-124 mut / m9_22|+3|m2_5 (mixed)
RNA 1: UCUGGCUCGCGGUGAAUGCCAA
RNA 2: B11 RNA 2 with U25C, U26C, U27A
modifications: 5'-phosphate guide
binding result ([8]; g9-22 and g2-5 paired): binds
